This is an account of results in patent US4609626A, “Method for producing S-adenosyl-L-homocysteine hydrolase” (Nippon Zeon Co., Ltd., priority 1983, dated 1986).

The target of series [1] is T1, S-adenosyl-L-homocysteine hydrolase (SAHase) from Alcaligenes faecalis (IFO 12669) (Alcaligenes faecalis, UniProt A0A2U2BLR9).
T1 sequence (A0A2U2BLR9 1-465): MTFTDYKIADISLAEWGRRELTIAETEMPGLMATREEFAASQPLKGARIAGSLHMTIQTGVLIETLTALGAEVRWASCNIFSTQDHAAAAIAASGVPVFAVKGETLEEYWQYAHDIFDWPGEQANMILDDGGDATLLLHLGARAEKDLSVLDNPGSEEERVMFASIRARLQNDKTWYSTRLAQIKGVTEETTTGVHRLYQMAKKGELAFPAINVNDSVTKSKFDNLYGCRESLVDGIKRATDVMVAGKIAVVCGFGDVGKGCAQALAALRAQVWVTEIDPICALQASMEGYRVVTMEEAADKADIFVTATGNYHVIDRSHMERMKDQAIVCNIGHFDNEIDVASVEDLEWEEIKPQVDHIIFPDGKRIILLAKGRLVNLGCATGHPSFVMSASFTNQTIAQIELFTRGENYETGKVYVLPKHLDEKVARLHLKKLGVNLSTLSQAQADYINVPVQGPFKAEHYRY
To be noted: read-out: Km for SAH; purified crystalline SAHase of Example 1.

Substrate in series [2]: Nc1ncnc2c1ncn2[C@@H]1O[C@H](CO)[C@@H](O)[C@H]1O
The experiment in a line: purified protein, by the assay type. To be noted: other: purified crystalline SAHase of Example 1.

Substrate in series [3]: N[C@@H](CCS)C(=O)O
The experiment in a line: purified protein, by the assay type. The following applies: other: purified crystalline SAHase of Example 1.

Take `Nc1ncnc2c1ncn2[C@@H]1O[C@H](CSCC[C@H](N)C(=O)O)[C@@H](O)[C@H]1O` [SAH, S-adenosyl-L-homocysteine]: the Michaelis constant (Km) in series [1] came to 10 µM.

B1: S-adenosyl-L-homocysteine hydrolase (SAHase) from Alcaligenes faecalis (IFO 12669) (Alcaligenes faecalis) (protein)
chain: MTFTDYKIADISLAEWGRRELTIAETEMPGLMATREEFAASQPLKGARIAGSLHMTIQTGVLIETLTALGAEVRWASCNIFSTQDHAAAAIAASGVPVFAVKGETLEEYWQYAHDIFDWPGEQANMILDDGGDATLLLHLGARAEKDLSVLDNPGSEEERVMFASIRARLQNDKTWYSTRLAQIKGVTEETTTGVHRLYQMAKKGELAFPAINVNDSVTKSKFDNLYGCRESLVDGIKRATDVMVAGKIAVVCGFGDVGKGCAQALAALRAQVWVTEIDPICALQASMEGYRVVTMEEAADKADIFVTATGNYHVIDRSHMERMKDQAIVCNIGHFDNEIDVASVEDLEWEEIKPQVDHIIFPDGKRIILLAKGRLVNLGCATGHPSFVMSASFTNQTIAQIELFTRGENYETGKVYVLPKHLDEKVARLHLKKLGVNLSTLSQAQADYINVPVQGPFKAEHYRY
With B1, the Michaelis constant (Km) in series [2] is 37 µM; in series [3] it was 930 µM.

By Km is commonly meant the concentration of substrate that gives half-maximal velocity.
